Test [1] deals with recombinant mouse TNFα (mouse) (UniProt P06804).
Test [2] shares this target. This is another data set of the same source.

Read-outs that look alike come from different tables or passages of the source.

Data on 1 substance can be found in patent US20250288697A1.

Chain of UniProt P06804 (P06804 80-235 limits assumed): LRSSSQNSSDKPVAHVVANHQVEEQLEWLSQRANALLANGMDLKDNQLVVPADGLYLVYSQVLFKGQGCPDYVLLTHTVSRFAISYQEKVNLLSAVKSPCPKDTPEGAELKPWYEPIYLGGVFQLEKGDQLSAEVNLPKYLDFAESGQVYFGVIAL

Turning to “TNFR2-Fc (etanercept), vectorized (Fc fusion)”, the IC50 (read off the curve); HEK-Blue TNFα reporter (SEAP), % TNFα activity was determined as 0.9 µg/mL in test [1] and 0.5 µg/mL in test [2].
